Target: EPHB2 (UniProt P29323)
Assay: phosphorylation enrichment, bacterial display (enrichment ratio); higher = better substrate or ligand; peptides without Tyr show the background
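Further: 11-residue human phosphosite peptides and single-mutation variants displayed on the E. coli surface, counted by deep sequencing, each peptide's frequency after selection divided by its frequency in the unselected input library; frequency after pTyr selection over input frequency; kinase dosed for 20-30% of maximal phosphorylation in three min.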

Sequence of EPHB2 (P29323 whole entry, looked up): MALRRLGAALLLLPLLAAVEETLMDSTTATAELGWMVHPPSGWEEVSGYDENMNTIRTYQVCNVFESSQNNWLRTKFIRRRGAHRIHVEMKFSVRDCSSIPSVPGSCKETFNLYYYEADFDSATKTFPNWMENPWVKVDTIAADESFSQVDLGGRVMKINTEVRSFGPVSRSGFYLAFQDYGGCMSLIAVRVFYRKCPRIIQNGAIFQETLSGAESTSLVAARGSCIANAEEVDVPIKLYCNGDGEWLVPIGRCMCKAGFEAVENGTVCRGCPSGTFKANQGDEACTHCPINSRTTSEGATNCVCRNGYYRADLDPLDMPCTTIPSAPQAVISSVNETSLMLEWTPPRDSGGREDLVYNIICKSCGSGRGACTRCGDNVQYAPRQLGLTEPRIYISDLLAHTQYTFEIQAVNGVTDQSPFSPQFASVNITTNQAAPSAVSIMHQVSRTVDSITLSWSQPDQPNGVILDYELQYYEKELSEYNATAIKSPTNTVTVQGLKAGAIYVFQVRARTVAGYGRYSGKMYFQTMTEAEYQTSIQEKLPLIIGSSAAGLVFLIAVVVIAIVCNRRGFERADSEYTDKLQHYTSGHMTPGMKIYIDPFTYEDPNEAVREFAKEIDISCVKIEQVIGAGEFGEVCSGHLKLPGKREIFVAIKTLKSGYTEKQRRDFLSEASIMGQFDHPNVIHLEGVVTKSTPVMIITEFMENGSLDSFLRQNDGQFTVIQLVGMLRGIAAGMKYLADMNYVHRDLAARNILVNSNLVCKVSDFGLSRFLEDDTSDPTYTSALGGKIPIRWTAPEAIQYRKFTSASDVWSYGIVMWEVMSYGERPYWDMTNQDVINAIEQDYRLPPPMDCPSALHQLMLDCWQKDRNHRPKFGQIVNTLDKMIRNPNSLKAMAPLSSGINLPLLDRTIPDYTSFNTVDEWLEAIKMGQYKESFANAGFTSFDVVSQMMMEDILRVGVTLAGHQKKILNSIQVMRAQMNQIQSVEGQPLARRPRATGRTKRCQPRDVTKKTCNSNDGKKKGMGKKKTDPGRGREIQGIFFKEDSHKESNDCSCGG

| Sequence | phosphorylation enrichment |
| --- | --- |
| HRGSLYLAIEF [TEK_Y899_Y897S_YF] | 0.491 |
| VFPIDYYFPPQ [AR_Y552_L548F] | 3.65 |
| PLDNLYAEPAV [PRPS1_Y146_V142L] | 12.9 |
| YASALYRQRRS [FGF11_Y162] | 0.62 |
| VKPENYWRLDI [VHL_Y175_R176W] | 0.61 |
| FLRKEYGGLNV [CBR3_Y81] | 0.519 |
| DKATEYIQFVR [MAX_Y70_M74V_YF] | 0.53 |
| MGSFNYLGFAR [SPTLC2_Y178_YF] | 0.493 |
| KIPGRYFETGS [PAX2_Y72_L69P_YF] | 0.546 |
| GSPAPYRRRKR [MBD1_Y403_P401A] | 0.499 |
| PINEPYGDDLD [JUP_Y693_M697L] | 0.921 |
| LHSDHYSPSGR [TMPRSS12_Y23_Y19H] | 0.672 |
| EKQLLYSENKT [FRK_Y132] | 0.652 |
| NSRYTCKLEVK [USH2A_Y3747_Y3747C] | 0.57 |
| DRLASNLDKVR [KRT10_Y160_Y160N] | 0.307 |
| GNHVSYYQSDG [CACNA1C_Y1757] | 0.485 |
| SIIKDSFHRGA [GATM_Y203_Y203S] | 0.334 |

| Sequence | phosphorylation enrichment |
| --- | --- |
| EFLHKYKGFKI [SYNE1_Y6953_Q6951H_YF] | 0.264 |
| KTDVRYRSLGG [DYSF_Y1858_H1857R] | 0.312 |
| SVEVPYEPPEV [TP53_Y220_V217E] | 0.675 |
| RVGNMYVRGLS [ABCG8_Y209] | 0.471 |
| PLGKDYRKAEG [MAP1A_Y1909] | 0.532 |
| SYMVRYNQPRV [GRIN2D_Y736] | 0.51 |
| SFKNKYGMVAQ [APOB_Y276_YF] | 0.354 |
| GLRSFYETSKM [MAGED2_Y449_YF] | 0.342 |
| AEYGLYGAMVW [VSX2_Y222_R227W] | 4 |
| TVFENYVADIE [RHOA_Y42] | 0.664 |
| PESIPYRKFTT [NTRK1_Y701_L700P] | 0.668 |
| ATDLAYYLVRE [ASL_Y375_K380E] | 0.476 |
| FHNSEYGELSE [FLT4_Y1337_Y1333H] | 0.504 |
| HNQDGYSFLSR [LDLR_Y845_P848L_YF] | 1 |
| ASPKSYPSQKH [CAP2_Y316_T311A] | 0.276 |
| KICDWYQRQRP [KRT14_Y151_R148C] | 0.602 |

Target: FGFR1 (UniProt P11362)
Assay: as above

Sequence of FGFR1 (P11362 whole entry, looked up): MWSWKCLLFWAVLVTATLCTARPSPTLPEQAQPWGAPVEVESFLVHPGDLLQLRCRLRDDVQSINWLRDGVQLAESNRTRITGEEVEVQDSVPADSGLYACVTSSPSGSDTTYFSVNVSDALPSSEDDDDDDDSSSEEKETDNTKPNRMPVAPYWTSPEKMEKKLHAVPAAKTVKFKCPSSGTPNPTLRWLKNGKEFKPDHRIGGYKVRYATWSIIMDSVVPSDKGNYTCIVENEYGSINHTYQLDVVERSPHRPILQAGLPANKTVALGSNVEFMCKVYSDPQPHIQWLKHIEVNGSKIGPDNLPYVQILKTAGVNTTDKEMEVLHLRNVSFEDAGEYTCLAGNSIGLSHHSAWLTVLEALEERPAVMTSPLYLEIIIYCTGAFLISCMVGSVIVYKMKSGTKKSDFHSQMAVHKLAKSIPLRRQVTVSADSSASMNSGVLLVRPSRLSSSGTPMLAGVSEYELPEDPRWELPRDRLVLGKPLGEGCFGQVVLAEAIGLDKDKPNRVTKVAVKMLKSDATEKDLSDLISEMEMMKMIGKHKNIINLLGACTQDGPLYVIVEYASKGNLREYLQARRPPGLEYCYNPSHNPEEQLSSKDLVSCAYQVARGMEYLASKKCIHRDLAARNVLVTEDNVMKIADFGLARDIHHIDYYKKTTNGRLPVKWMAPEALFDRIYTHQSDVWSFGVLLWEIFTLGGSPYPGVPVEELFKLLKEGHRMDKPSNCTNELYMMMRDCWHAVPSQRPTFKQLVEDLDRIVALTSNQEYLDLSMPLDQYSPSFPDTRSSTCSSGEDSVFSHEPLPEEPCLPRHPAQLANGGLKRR

| Sequence | phosphorylation enrichment |
| --- | --- |
| HRGSLYLAIEF [TEK_Y899_Y897S_YF] | 0.589 |
| VFPIDYYFPPQ [AR_Y552_L548F] | 13.8 |
| PLDNLYAEPAV [PRPS1_Y146_V142L] | 0.719 |
| YASALYRQRRS [FGF11_Y162] | 0.507 |
| VKPENYWRLDI [VHL_Y175_R176W] | 0.783 |
| FLRKEYGGLNV [CBR3_Y81] | 0.393 |
| DKATEYIQFVR [MAX_Y70_M74V_YF] | 0.519 |
| MGSFNYLGFAR [SPTLC2_Y178_YF] | 0.504 |
| KIPGRYFETGS [PAX2_Y72_L69P_YF] | 0.471 |
| GSPAPYRRRKR [MBD1_Y403_P401A] | 0.596 |
| PINEPYGDDLD [JUP_Y693_M697L] | 0.873 |
| LHSDHYSPSGR [TMPRSS12_Y23_Y19H] | 0.485 |
| EKQLLYSENKT [FRK_Y132] | 0.456 |
| NSRYTCKLEVK [USH2A_Y3747_Y3747C] | 0.471 |
| DRLASNLDKVR [KRT10_Y160_Y160N] | 0.491 |
| GNHVSYYQSDG [CACNA1C_Y1757] | 0.718 |
| SIIKDSFHRGA [GATM_Y203_Y203S] | 0.379 |

| Sequence | phosphorylation enrichment |
| --- | --- |
| EFLHKYKGFKI [SYNE1_Y6953_Q6951H_YF] | 0.397 |
| KTDVRYRSLGG [DYSF_Y1858_H1857R] | 0.372 |
| SVEVPYEPPEV [TP53_Y220_V217E] | 0.622 |
| RVGNMYVRGLS [ABCG8_Y209] | 0.58 |
| PLGKDYRKAEG [MAP1A_Y1909] | 0.691 |
| SYMVRYNQPRV [GRIN2D_Y736] | 0.561 |
| SFKNKYGMVAQ [APOB_Y276_YF] | 0.335 |
| GLRSFYETSKM [MAGED2_Y449_YF] | 0.385 |
| AEYGLYGAMVW [VSX2_Y222_R227W] | 0.521 |
| TVFENYVADIE [RHOA_Y42] | 0.642 |
| PESIPYRKFTT [NTRK1_Y701_L700P] | 0.594 |
| ATDLAYYLVRE [ASL_Y375_K380E] | 8.49 |
| FHNSEYGELSE [FLT4_Y1337_Y1333H] | 0.569 |
| HNQDGYSFLSR [LDLR_Y845_P848L_YF] | 0.765 |
| ASPKSYPSQKH [CAP2_Y316_T311A] | 0.356 |
| KICDWYQRQRP [KRT14_Y151_R148C] | 0.466 |

From the supplement of paper PMC10065799, “High-throughput profiling of sequence recognition by tyrosine kinases and SH2 domains using bacterial peptide display” (eLife, 2023)
